Experimental findings from patent publication US20250250357A1 (NANJING ZAIMING PHARMACEUTICAL, published 2025) are described below.

The target in experiment [1] is T1, human MSLN-FL-his protein (human, UniProt Q13421 296-580).
T1 construct: made in HEK293E cells, purified on nickel column; also called hMSLN-FL-his; human MSLN full-length protein; not shown: His tag
Briefly: competitive ELISA; row Tab142 (R1). For orientation: In an ELISA, binding on a coated surface is turned into a signal by an enzyme label.

For experiment [2], the target named is T1, human MSLN-FL-his protein. Briefly: competitive ELISA; row Tab108 (R3).
Description: (§1) In order to identify antigen-binding sites of antibodies, MSLN chimeric antibodies were grouped using competitive ELISA.
(§2) The chimeric antibodies were diluted to 2 μg/mL with PBS and allowed to coat 96-well high-adsorption ELISA plates at 50 μL/well. After the plates were coated at 4° C. overnight, 250 μL of a blocking buffer (PBS containing 2% (w/w) BSA) was added for two hours of blocking at room temperature. 40 μg/mL of the antibodies to be tested were added, and then the human MSLN-FL-His protein with an EC₈₀ concentration corresponding to each of the antibodies to be tested was added for incubation for 2 h. The plates were washed 5 times with PBS, an HRP-labeled anti-His secondary antibody (purchased from Genescript, Cat. No. A00612) was then added for incubation for 1 h, and the plates were washed 5 times again. A TMB substrate was added at 50 μL/well, and after 10 minutes of incubation at room temperature, a stop solution (1.0 M HCl) was added at 50 μL/well. OD₄₅₀ nm values were read using an ELISA plate reader (Insight, purchased from PerkinElmer), and the competition rate between the antibodies was calculated according to the OD₄₅₀ nm values using a formula.
In experiment [3] the target is T1, human MSLN-FL-his protein. In words: competitive ELISA; row F1.2.12.
Description: as §1, §2
The target in experiment [4] is T1, human MSLN-FL-his protein. In words: competitive ELISA; row F2.17.3.
Description: as §1, §2
Experiment [5] addresses T1, human MSLN-FL-his protein. In words: competitive ELISA; row F1.56.1.
Description: as §1, §2
For experiment [6], the target named is T1, human MSLN-FL-his protein. Briefly: competitive ELISA; row F1.35.24.
Description: as §1, §2
Experiment [7] concerns the target T1, human MSLN-FL-his protein. Briefly: competitive ELISA; row F2.24.10.
Description: as §1, §2
Experiment [8] deals with T1, human MSLN-FL-his protein. Briefly: competitive ELISA; row F2.58.8.
Description: as §1, §2
The target of experiment [9] is T1, human MSLN-FL-his protein. In words: competitive ELISA; row F2.39.3.
Description: as §1, §2
For experiment [10], the target named is T1, human MSLN-FL-his protein. Briefly: competitive ELISA; row Tab107 (conformation).
Description: as §1, §2
For experiment [11], the target named is T1, human MSLN-FL-his protein. In words: competitive ELISA; row F2.13.3.
Description: as §1, §2
The target in experiment [12] is T1, human MSLN-FL-his protein. Briefly: competitive ELISA; row F2.16.10.
Description: as §1, §2
In experiment [13] the target is T1, human MSLN-FL-his protein. Briefly: SPR (Biacore), antibody captured on Protein A chip.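 Further: measured at 25 °C, analyte injected 240 s in five twofold dilutions from 200 nM, dissociation up to 600 s, double-referenced, fitted with Langmuir 1:1 model.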 For orientation: SPR reads the build-up and loss of mass on a sensor chip optically.

T1 sequence (Q13421 other isoform, or with tags, fused parts or gaps): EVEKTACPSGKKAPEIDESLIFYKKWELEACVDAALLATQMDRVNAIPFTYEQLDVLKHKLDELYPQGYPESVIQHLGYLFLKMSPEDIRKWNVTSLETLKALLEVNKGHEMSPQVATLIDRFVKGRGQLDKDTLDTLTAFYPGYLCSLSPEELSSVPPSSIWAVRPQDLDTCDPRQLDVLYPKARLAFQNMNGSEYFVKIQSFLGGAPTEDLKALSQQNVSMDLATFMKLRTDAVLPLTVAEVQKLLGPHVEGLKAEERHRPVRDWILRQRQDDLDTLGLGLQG

B1: S009-F2.16.10 (antibody, human IgG1, kappa, V domains shown)
VH: QVQLQQPGAELIKPGASVKLSCKASGYTFTSYWMHWVKQRPGQGLEWIGIIHPNIGSTNYNERFKSKATLTVDKSSSTAYMQLSSLTSEDSAVYYCARRSSNYGDWYFDVWGTGTTVTVSS
VL: DIVMTQSHRFMSTSVGDRVSITCKASQDVGTSVAWYQQKPGQSPKLLIYWASTQHTGVPDRFTGSGSGTDFTLTINNVQSEDLLDYFCQQYSSYPLTFGAGTKLELKR
notes: human-murine chimeric antibody, human IgG1/kappa constant regions
As a reminder, the Kd is the concentration at which binding is half-saturated. Low values mean a tighter complex, high ones a looser complex. As a reminder, the koff is the first-order rate constant of dissociation. Read a low koff as slow dissociation. For orientation: kon means the rate constant with which the complex forms. Regarding B1, the competition rate was 98% in experiment [1]; -156% in experiment [2]; -401% in experiment [3]; -34% in experiment [4]; -401% in experiment [5]; -18% in experiment [6]. Moreover, the competition rate in [7] was 88%; in [8], 18%; in experiment [9], 31%; in experiment [10], -51%; in [11], -740%; in experiment [12], 103%. In addition, in experiment [13], binding was characterised by a dissociation constant (Kd) of 1.51 nM. Besides, the dissociation rate constant (koff) in experiment [13] came out at 0.00164 s⁻¹. In [13], this molecule yielded a kon of 1.09e+06 M⁻¹ s⁻¹.

B2: S009-F1.35.24 (antibody, human IgG1, kappa, V domains shown)
VH: EVQLQQSEPELVKPGASVRISCKASGYSFTDYYMHWVKQSPENRLEWIGEINPSTGGTSYNPKFKDKATLTVDKSSSTAYMQLKSLTSEESAVYYCTRYHYYGSSSYVMDYWGQGTSVTVSS
VL: QIVLTQSPAILSASPGERVTMTCSASSSVYHMHWFQQKSGTSPKRWVYDTSKLASGVPARFSGSGSGTSYSLTISSMEAEDAATYYCQHWRTNPLTFGAGTKLELKR
notes: as for B1
Consider B2, for which the competition rate is 49% in [1]; 62% in [2]; -15% in [3]; 59% in [4]; 97% in experiment [5]; 100% in experiment [6]. Also, the competition rate in [7] was 13%; in experiment [8], 100%; in experiment [9], 67%; in experiment [10], 36%; in [11] it was 29%; in experiment [12] it was 31%. This molecule showed a Kd in experiment [13] of 0.914 nM. Also, in experiment [13], the dissociation rate constant (koff) worked out at 8.51e-05 s⁻¹. The molecule further displayed a kon in [13] of 93100 M⁻¹ s⁻¹.

B3: S009-F2.23.12 (antibody, human IgG1, kappa, V domains shown)
VH: QVQLQQPGTELVKPGASVKLSCKASGYTFTNYWMHWVKQRPGQGLEWIGNINPSNGGPYYNERFRSKATLTVDKSSSTAYMQLSSLTSEDSAVYYCARPYYGSSYGYFDYWGQGTTLTVSS
VL: DIQMTQSPSSLSASLGGKVTITCKASQDINKYIAWYQHKPGKGPRLLIHYTSELQPGIPSRFSGNGSGRDYSFSISNLEPEDIATYYCLQYANPLRTFGGGTKLEIKR
notes: as for B1
With B3, the competition rate in experiment [1] was 23%; in experiment [2], 85%; in experiment [3], -70%; in experiment [4] it was 90%; in experiment [5], 24%; in [6], 61%. Besides, the competition rate is 2% in [7]; 69% in experiment [8]; 97% in experiment [9]; 3% in experiment [10]; -1080% in [11]; -42% in experiment [12]. The molecule further came in with a Kd in [13] of 8.71 nM. Also, in [13], the off-rate constant (koff) was determined as 0.000714 s⁻¹. The molecule also yielded a kon in experiment [13] of 81900 M⁻¹ s⁻¹.

B4: S009-F2.17.3 (antibody, human IgG1, kappa, V domains shown)
VH: QVQLQQPGTELVTPGASVKLSCKASGYSFTSYWMHWVKQRPGQGLEWIGNINPSNGDTFYNEKFKNKATLTVDKSSSTAYMQLSSLTSEDSAVYYCARGWLRDYWGQGTTLTVSS
VL: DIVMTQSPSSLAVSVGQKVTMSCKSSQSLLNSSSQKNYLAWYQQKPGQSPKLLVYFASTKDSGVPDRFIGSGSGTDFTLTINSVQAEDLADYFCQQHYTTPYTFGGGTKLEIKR
notes: as for B1
Turning to B4, the competition rate is 15% in experiment [1]; 100% in [2]; -182% in experiment [3]; 102% in [4]; -56% in experiment [5]; 43% in experiment [6]. Moreover, the competition rate in [7] was -13%; in [8] it was 78%; in experiment [9] it was 106%; in experiment [10] it was -1%; in experiment [11], -814%; in [12] it was -8%. The molecule also displayed a Kd in [13] of 2.72 nM. The molecule further had a koff in [13] of 0.000174 s⁻¹. The molecule also yielded a kon in experiment [13] of 64100 M⁻¹ s⁻¹.

B5: S009-F2.58.8 (antibody, human IgG1, kappa, V domains shown)
VH: QVQLLQSGAELAKPGASVKLSCKASGYTFTSYWVHWVKQRPGQGLEWIGYINPNSGYTKYNQKFKDKATLTADKSSSTAYMQLSSLTYEDSAVYYCADHYYGSSRDYFDYWGQGTTLTVSS
VL: QIVLTQSPAIMSASPGEKVTMTCSASSSVSYMYWYQQRPGSSPRLLIYDTSNLASGVPVRFSGSGSGTSYSLTISRMEAEDAATYYCQQWNSYPYTFGGGTKLEIKR
notes: as for B1
Regarding B5, the competition rate in experiment [1] is 46%; in experiment [2], 60%; in experiment [3] it was -133%; in experiment [4], 84%; in [5], 104%; in [6], 96%. Moreover, the competition rate is 6% in experiment [7]; 111% in [8]; 91% in experiment [9]; -6% in experiment [10]; -396% in [11]; 41% in experiment [12]. The dissociation constant (Kd) in [13] is 0.524 nM. This molecule registered a koff in experiment [13] of 0.000123 s⁻¹. The molecule also gave a kon in experiment [13] of 236000 M⁻¹ s⁻¹.

B6: S009-F2.13.3 (antibody, human IgG1, kappa, V domains shown)
VH: QVQLQQSGAELMKPGASVKLSCKATGYTFTGYWIEWVKQRPGHGLEWIGEILPGSGSTNYNEKFKGKATFTADTSSNTAYMQLSSLTTEDSAIYYCARAGAWFAYWGQGTLVTVSA
VL: QIVLTQSPAIMSASLGERVTMTCTASSSVSSSYLHWYQQKPGSSPKLWTYSTSNLASGVPARFSGSGSGTSYSLTISSMEAEDAATYYCHQYHRSPWTFGGGTKLEIKR
notes: as for B1
As for B6, the competition rate in [1] is -33%; in experiment [2], -105%; in experiment [3], 23%; in experiment [4], -11%; in experiment [5], -426%; in experiment [6], 7%. Moreover, the competition rate was -65% in [7]; -86% in experiment [8]; 13% in experiment [9]; -54% in experiment [10]; 84% in experiment [11]; -41% in experiment [12]. The dissociation constant Kd in [13] came out at 8.65 nM. Moreover, the koff in experiment [13] was determined as 0.00189 s⁻¹. In addition, in experiment [13], the on-rate constant (kon) is 219000 M⁻¹ s⁻¹.

B7: S009-F2.39.3 (antibody, human IgG1, kappa, V domains shown)
VH: QVQLQQPGTELVKPGASVKLSCKASGYTFTNYWMHWVKQRPGQGLEWIGNINPSSGDSYYNERFMSKAKMTVDKSSSTAYMQLSSLTSEDSAVYYCARSGGLWLAFWGPGTLVTVSA
VL: DIVMTQSPSSLAMSVGQKVTMSCKSSQTLLNSVSQNNYLAWYQQKPGQSPTLLVYFASTRESGVPDRFIGGGSGTDFTLTISSVQAEDLADYFCQQHYRTPYTFGGGTNLEIKR
notes: as for B1
On to B7, for which the competition rate in experiment [1] is 19%; in [2], 101%; in [3], -208%; in [4], 107%; in [5] it was -87%; in experiment [6], 47%. Also, the competition rate is -13% in experiment [7]; 97% in experiment [8]; 105% in experiment [9]; 0% in experiment [10]; -525% in [11]; 4% in [12]. This molecule also displayed a Kd in [13] of 3.06 nM. Moreover, the koff in experiment [13] was determined as 0.000122 s⁻¹. This molecule also returned an on-rate (kon) in experiment [13] of 40000 M⁻¹ s⁻¹.

B8: S009-F1.56.1 (antibody, human IgG1, kappa, V domains shown)
VH: EVQLQQSGAEVVKPGASVKLSCTASGFNIRHTYMHWVKQRPEQGLEWIGRIDPANGNTEYDPKFQGKATITADTSSNTAYLQLSSLTSEDTAVYYCARDGWYIDVWGAGTTVTVSS
VL: DIVMSQSPSSLAVSVGEKVTMSCKSSQSLLYSNNQKNYLAWYQQKPGQSPKLLIYWASTRESGVPDRFTGSGSGTDFTLTISSVKAEDLAVYYCQRYYSYPWTFGGGTKLEIKR
notes: as for B1
Turning to B8, the competition rate is 9% in experiment [1]; -36% in experiment [2]; 75% in [3]; -6% in [4]; 104% in experiment [5]; 79% in experiment [6]. The competition rate in experiment [7] was -39%; in experiment [8], 107%; in experiment [9], 69%; in experiment [10], -35%; in experiment [11] it was -588%; in experiment [12] it was -7%. Further, the Kd in experiment [13] turned out to be 0.889 nM. The koff in [13] came to 0.00071 s⁻¹. In experiment [13], this molecule had a kon of 799000 M⁻¹ s⁻¹.
